Experimental data published in patent US20220332795A1.

Target: human serum albumin (human) (UniProt P02768)
Assay: primary solution ELISA screen

Sequence of human serum albumin (human) (P02768 25-609 limits assumed): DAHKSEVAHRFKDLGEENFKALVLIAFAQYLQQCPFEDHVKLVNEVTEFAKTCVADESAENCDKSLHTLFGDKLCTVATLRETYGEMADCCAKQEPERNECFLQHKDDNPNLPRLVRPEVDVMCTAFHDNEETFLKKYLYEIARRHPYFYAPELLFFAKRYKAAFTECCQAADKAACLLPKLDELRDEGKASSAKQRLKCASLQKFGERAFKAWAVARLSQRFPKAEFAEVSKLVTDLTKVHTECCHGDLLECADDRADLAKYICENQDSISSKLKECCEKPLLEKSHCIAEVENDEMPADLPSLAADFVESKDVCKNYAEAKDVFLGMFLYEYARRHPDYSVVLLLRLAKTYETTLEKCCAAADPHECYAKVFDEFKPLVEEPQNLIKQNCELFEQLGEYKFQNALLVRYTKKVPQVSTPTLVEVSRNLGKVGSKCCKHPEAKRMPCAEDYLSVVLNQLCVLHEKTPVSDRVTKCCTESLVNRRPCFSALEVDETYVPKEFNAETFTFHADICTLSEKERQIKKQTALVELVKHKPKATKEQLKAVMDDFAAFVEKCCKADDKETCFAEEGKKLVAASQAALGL

Binder | RLU [RLU]
SEQ ID NO 37 (designed binder, not shown: small tags and cut ends) MLPAPKNLVVSRVTEDSARLSWTTPDAAFDSFPIYYWEVTITGEAIYLSVPGSERSYDLTGLKPGTEYPVDIPGVKGGAASPPLSAIFTT | 28600
SEQ ID NO 38 (designed binder, not shown: small tags and cut ends) MLPAPKNLVVSRVTEDSARLSWTAPDAAFDSFPILYLEHTVRSEAIVLTVPGSERSYDLTDLKPGTEYCVPIDGVKGGLRSRPLSAIFTT | 8150
SEQ ID NO 39 (designed binder, not shown: small tags and cut ends) MLPAPKNLVVSRVTEDSARLSWTAPDAAFDSFPIPYTEPPDPGEAIVLTVPGSERSYDLTGLKPGTEYLVTILGVKGGSMSVPLSAIFTT | 51100
SEQ ID NO 4 (designed binder, not shown: small tags and cut ends) MLPAPKNLVVSEVTEDSARLSWQGVARAFDSFLITYRDQIFAGEVIVLTVPGSERSYDLTGLKPGTEYPVWIQGVKGGSPSAPLSAESTT | 174000
SEQ ID NO 40 (designed binder, not shown: small tags and cut ends) MLPAPKNLVVSRVTEDSARLSWTAPDAAFDSFTIDYWENRCPGEAIVLTVPGSERSYDLTGLKPGTEYCVWISGVKGGYSSWPLSAIFTT | 13600
SEQ ID NO 41 (designed binder, not shown: small tags and cut ends) MLPAPKNLVVSRVTEDSARLSWQGVARAFDSFLITYREQIFAGEVIVLTVPGSERSYDLTGLKPGTEYPVWIQGVKGGHLSDPLSAIVTT | 115000
SEQ ID NO 42 (designed binder, not shown: small tags and cut ends) MLPAPKNLVVSRVTEDSARLSWTAPDAAFDSFLIPYAETSPSGEAIVLTVPGSERSYDLTGLKPGTEYSVLIHGVKGGDYSEPLSAIFTT | 1000
SEQ ID NO 43 (designed binder, not shown: small tags and cut ends) MLPAPKNLVVSRVTEDSARLSWTAPDAAFDSFMIVYYEYTRFGEAIVLTVPGSERSYDLTGLKPGTEYTVPIDGVKGGGRSSPLSAIFTT | 21500
SEQ ID NO 44 (designed binder, not shown: small tags and cut ends) MLPAPKNLVVSRVTEDSARLSWTAPDAAFDSFFIPYAEPSPTGEAIVLTVPGSERSYDLTGLKPGTEYSVLIHGVKGGHLSDPLSAIVTT | 56600
SEQ ID NO 46 (designed binder, not shown: small tags and cut ends) MLPAPKNLVVSRVTEDSARLSWTAPDAAFDSFIIPYAEVRPDGEAIVLTVPGSERSYDLTGLKPGTEYSVLIHGVKGGKLSLPLSAIFTT | 8150
SEQ ID NO 47 (designed binder, not shown: small tags and cut ends) MLPAPKNLVVSRVTEDSARLSWTAPDAAFDSFGIVYLEMMVTGEAIVLTVPGSERSYDLTGLKPGTEYDVPILGVKGGTRSVPLSAIFTT | 20400
SEQ ID NO 48 (designed binder, not shown: small tags and cut ends) MLPAPKNLVVSRVTEDSARLSWTAPDAAFDSFLIYYEEGYLEYYYSGEAIVLTVPGSERSYDLTGLKPGTEYYVGIVGVKGGGLSGPLSAISTT | 115000
SEQ ID NO 5 (designed binder, not shown: small tags and cut ends) MLPAPKNLVVSEVTEDSARLSWQGVARAFDSFLITYREQIFAGEVIVLTVPGSERSYDLTGLKPGTEYWVYIWGVKGGKPSFPLRAGFTT | 45000
SEQ ID NO 50 (designed binder, not shown: small tags and cut ends) MSLPAPKNLVVSRVTEDSARLSWTAPDAAFDSFTIHYREFQLSGEAIVLTVPGSERSYDLTGLKPGTEYDVPIEGVKGGPGSRPLSAIFTT | 16000
SEQ ID NO 53 (designed binder, not shown: small tags and cut ends) MLPAPENLVVSEVTEDSARLSWQGVARAFDSFLITYREQIFAGEVIVLTVPGSERSYDLTGLKPGTEYPVWIQGVKGGSPSAPLSAESTT | 32000
SEQ ID NO 54 (designed binder, not shown: small tags and cut ends) MLPAPKNLVVSRVTEDSARLSWTAPDAAFDSFAIAYGEHIVIGEAIVLTVPGSERSYDLTGLKPGTEYMVPIAGVKGGPISLPLSAIFTT | 11700
SEQ ID NO 56 (designed binder, not shown: small tags and cut ends) MLPAPKNLVVSRVTEDSARLSWTAPDAAFDSFSIGYVELVLLGEAIVLTVPGSERSYDLTGLKPGTEYDVLIPGVKGGSLSRPLSAIFTT | 19400
SEQ ID NO 57 (designed binder, not shown: small tags and cut ends) MLPAPKNLVVSRVTEDSARLSWTAPDAAFDSFAIPYAELSRNGEAIVLTVPGSERSYDLTGLKPGTEYTVLIHGVKGGCLSDPLSAIFTT | 38800
SEQ ID NO 59 (designed binder, not shown: small tags and cut ends) MLPAPKNLVVSRVTEDSARLSWTAPDAAFDSFVYNEVHWIGEAIVLTVPGSERSYDLTGLKPGTEYFVGIYGVKGGHWSKPLSAIFTT | 16400
SEQ ID NO 6 (designed binder, not shown: small tags and cut ends) MLPAPKNLVVSRVTEDSARLSWTAPDAAFDSFPIIYMETFSRGEAIVLTVPGSERSYDLTGLKPGTEYRVPIGGVKGGSSSCPLSAIFTT | 7300
SEQ ID NO 61 (designed binder, not shown: small tags and cut ends) MLPAPKNLVVSRVTEDSARLSWTAPDAAFDSFQIVYSELWIKGEAIVLTVPGSERSYDLTGLKPGTEYQVPIPGVKGGRNSFPLSAIFTT | 13600

Binder | RLU [RLU]
SEQ ID NO 62 (designed binder, not shown: small tags and cut ends) MLPAPKNLVVSRVTEDSARLSWTAPDAAFDSFKIRYTETRSIGEAIVLTVPGSERSYDLTGLKPGTEYCVPIGGVKGGDSSWPLSAISTT | 8100
SEQ ID NO 63 (designed binder, not shown: small tags and cut ends) MLPAPKNLVVSRVTEDSARLSWTAPDAAFDSFCISYYERMGRGEAIVLTVPGSERSYDLTGLKPGTEYMVYIFGVKGGLNSLPLSAIFTT | 5700
SEQ ID NO 64 (designed binder, not shown: small tags and cut ends) MLPAPKNLVVSRVTEDSARLSWTAPDAAFDSFYIVYAEPIPNGEAIVLTVPGSERSYDLTGLKPGTEYSVLIHGVKGGRNSDPLSAIFTT | 6000
SEQ ID NO 65 (designed binder, not shown: small tags and cut ends) MLPAPKNLVVSRVTKDSARLSWTAPDAAFDSFPIAYAEPRPDGEAIVLTVPGSERSYDLTGLKPGTEYSVLIHGVKGGLLSSPLSAIFTT | 16000
SEQ ID NO 66 (designed binder, not shown: small tags and cut ends) MLPAPKNLVVSRVTEDSARLSWTAPDAAFDSFTIDYDEPRSPGEAIVLTVPGSERSYDLTGLKPGTEYRVFIWGIKGGDTSFPLSAIFTT | 8100
SEQ ID NO 67 (designed binder, not shown: small tags and cut ends) MLPAPKNLVVSRVTEDSARLSWTAPDAAFDSFTILYAEQAQFGEAIVLTVPGSERSYDLTGLKPGTEYPITGVKGGTRSGPLSAISTT | 14200
SEQ ID NO 68 (designed binder, not shown: small tags and cut ends) MLPAPKNLVVSRVTEDSARLSWTAPDAAFDSFIIPYAEVRPDGEAIVLTVPGSERSYDLTGLKPGTEYSVLIHGVKGGHLSDPLSAISTT | 38400
SEQ ID NO 1 (designed binder, not shown: small tags and cut ends) MLPAPKNLVVSRVTEDSARLSWTAPDAAFDSFPITYIEAVVLGEAIVLTVPGSERSYDLTGLKPGTEYPVGISGVKGGHNSMPLSAIFTT | 15800
SEQ ID NO 7 (designed binder, not shown: small tags and cut ends) MLPAPKNLVVSDVTEDSARLSWQGVARAFDSFLITYREQIFAGEVIVLTVPGSERSYDLTGLKPGTEYPVWIQGVKGGSPSAPLSAEFTT | 26100
SEQ ID NO 70 (designed binder, not shown: small tags and cut ends) MLPAPKNLVVSRVTEDSARLSWQGVARAFDSFLITYREQIFAGEVIVLTVPGSERSYDLTGLKPGTEYPVWIQGVKGGDLSNPLSAIFTT | 94800
SEQ ID NO 71 (designed binder, not shown: small tags and cut ends) MLPAPKNLVVSRVTEDSARLSWTAPDAAFDSFPISYLELSLYGEAIVLTVPGSERSYDLTGLKPGTEYPVGIAGVKGGVVSRPLSAIFTT | 27500
SEQ ID NO 72 (designed binder, not shown: small tags and cut ends) MLPAPKNLVVSRVTEDSARLSWTAPDAAFDSFTIGYREWYWYGEAIVLTVPGSERSYDLTGLKPGTEYNVPISGVKGGLDSFPLSAIFTT | 8950
SEQ ID NO 73 (designed binder, not shown: small tags and cut ends) MLPAPKNLVVSEVTEDSARLSWQGVARAFDSFLITYREQIFAGEVIVLTVPGSERSYDLTGLKPGTEYPVWIQGVKGGSPSAPLSAESTT | 20200
SEQ ID NO 74 (designed binder, not shown: small tags and cut ends) MLPAPKNLVVSRVTEDSARLSWTAPDAAFDSFSITYLEWWNLGEAIVLTVPGSERSYDLTGLKPGTEYMVTIPGVKGGMSSYPLSAIFTT | 14600
SEQ ID NO 75 (designed binder, not shown: small tags and cut ends) MLPAPKNLVVSRVTEDSARLSWTAPDAAFDSFTISYGEEALIGEAIYLRVPGSERSYDLTGLKPGTEYYVHIEGVKGGSWSQPLAAAFTT | 3700
SEQ ID NO 76 (designed binder, not shown: small tags and cut ends) MLPAPKNLVVSRVTEDSARLSWTAPDAAFDSFTIEYYENIGIGEAIVLTVPGSERSYDLTGLKPGTEYSVPIVGVKGGPYSHPLSAIFTT | 16300
SEQ ID NO 77 (designed binder, not shown: small tags and cut ends) MLPAPKNLVVSRVTEDSARLSWTAPDAAFDSFPIAYAEPRPDGEAIVLTVPGSERSYDLTGLKPGTEYSVLIHGVKGGLLSSPLSAIFTT | 10400
SEQ ID NO 78 (designed binder, not shown: small tags and cut ends) MLPAPKNLVVSRVTEDSARLSWTAPDAAFDSFGIGYYEHKRFGEAIQLSVPGSERSYDLTGLKPGTEYEVDIEGVKGGVLSWPLFAEFTT | 9350
SEQ ID NO 79 (designed binder, not shown: small tags and cut ends) MLPAPKNLVVSRVTEDSARLSWTAPDAAFDSFVIEYTERFWSGEAIVLTVPGSERSYDLTGLKPGTEYSVPIDGVKGGQCSTPLSAIFTT | 6000
SEQ ID NO 10 (designed binder, not shown: small tags and cut ends) MLPAPKNLVVSRVTEDSARLSWTAPDAAFDSFKIAYIETATRGEAIVLTVPGSERSYDLTGLKPGTEYVVPIPGVKGGNTSSPLSAIFTT | 29300
